In patent publication US8889827B2, “Opiorphin peptide derivatives as potent inhibitors of enkephalin-degrading ectopeptidases” (Institut Pasteur, priority 2008, dated 2014):
Non-standard residues stand in square brackets, D forms with d. No end group written: not given here.

What was measured:
Format in all cases: biochemical
[1] = molecular target: T1, human NEP (Homo sapiens, UniProt P08473); assay: Screening of opiorphin peptide-derivatives on hNEP (endopeptidase and carboxydipeptidase activities); conditions: for inhibitory potency towards human NEP (in words): screening, 50 μM final concentration, triplicate
T1 construct: devoid of their respective N-terminal cytosol and transmembrane segment; purchased R&D Systems
Protocol: (§1) According to conditions of initial velocity measurement: the time, pH and temperature of incubation as well as enzyme and substrate concentrations were defined for each assay. Hydrolysis of substrates was measured by real-time monitoring their metabolism rate by the two peptidases in the presence and absence of tested inhibitory compound (concentrations ranging from 1 to 50 μM). These were added to the preincubation medium. The background rate of substrate autolysis representing the fluorescent signal obtained in the absence of enzyme was subtracted to calculate the initial velocities in RFU (Relative Fluorescent Unit)/min.
(§2) (2.3 min-interval successive measures) by using a fluorimeter microplate reader (monochromator Infinite 200-Tecan) at 320 nm and 420 nm excitation and emission wavelengths, respectively.
Using black half-area 96 well microplate, the standard reaction consisted of enzyme (2.5 ng) in 100 mM Tris-HCl pH 6.5 containing 50 mM NaCl (100 μl final volume). The substrate (4 μM final concentration) was added after preincubation for 10 min and the kinetics of appearance of the fluorescent signal (RFU) was directly analyzed for 40 min at 28° C. (2.3 min-interval successive measures) by using the fluorimeter reader at 320 nm excitation and 420 nm emission wavelengths.
In addition, the intramolecularly quenched fluorogenic peptide, Mca-BK2 (10 μM), was submitted to hydrolysis by 5 ng rhNEP under the same experimental conditions as those described behind.
(§3) Compounds were tested in triplicate at 50 μM final concentration.

[2] = molecular target: T2, recombinant human AP-N (Homo sapiens, UniProt P15144); assay: AP-N-ectopeptidase activity, Ala-Mca substrate; conditions: for inhibitory preference for human AP-N (in words): screening at 50 μM, AP-N versus NEP; for inhibitory potency towards human AP-N (in words): screening, 50 μM final concentration, triplicate
T2 construct: devoid of their respective N-terminal cytosol and transmembrane segment; purchased R&D Systems
Protocol: (§4) Formal kinetic analysis was performed for each assay using real-time fluorescence monitoring of specific substrate hydrolysis.
(§5) Recombinant human NEP and recombinant human AP-N (devoid of their respective N-terminal cytosol and transmembrane segment) that were purchased from R&D Systems, were used as pure source of peptidase.
FRET is the distance-dependant transfer of energy from a donor fluorophore (Abz=ortho-aminobenzoyl or Mca=7-methoxycoumarin-4-yl-acetyl) to an acceptor fluorophore (DnpOH=2,4-dinitrophenyl or EDDnp=2,4-dinitrophenyl ethylenediamine). • L-alanine-Mca, Ala-Mca, a fluorogenic substrate for measuring aminopeptidase activity was purchased from Sigma.
as §1
Measurement of AP-N-ectopeptidase activity using Ala-Mca substrate. Using black half-area 96 well microplate the standard reaction consisted of enzyme (4 ng) in 100 mM Tris-HCl pH 7.0 (100 μl final volume).
as §3

[3] = molecular target: T3, recombinant human NEP (rhNEP-Endopeptidase activity) (Homo sapiens, UniProt P08473); assay: NEP-endopeptidase activity, FRET substrate Abz-dR-G-L-EDDnp; conditions: screening at 50 μM and IC50 comparison, NEP endopeptidase versus AP-N
T3 construct: devoid of their respective N-terminal cytosol and transmembrane segment; purchased R&D Systems
Protocol: as §4, §5, §1, §2

[4] = molecular target: T4, membrane-bound human NEP expressed by LNCaP epithelial cells (Homo sapiens, UniProt P08473); assay: Substance P cleavage by membrane-bound hNEP of human cell membranes; conditions: increase vs Opiorphin native peptide in the same test
T4 construct: human cell membranes as source of hNEP; endogenous in cells; host or cells: LNCaP epithelial cells (membranes)
T4 sequence (P08473 whole entry): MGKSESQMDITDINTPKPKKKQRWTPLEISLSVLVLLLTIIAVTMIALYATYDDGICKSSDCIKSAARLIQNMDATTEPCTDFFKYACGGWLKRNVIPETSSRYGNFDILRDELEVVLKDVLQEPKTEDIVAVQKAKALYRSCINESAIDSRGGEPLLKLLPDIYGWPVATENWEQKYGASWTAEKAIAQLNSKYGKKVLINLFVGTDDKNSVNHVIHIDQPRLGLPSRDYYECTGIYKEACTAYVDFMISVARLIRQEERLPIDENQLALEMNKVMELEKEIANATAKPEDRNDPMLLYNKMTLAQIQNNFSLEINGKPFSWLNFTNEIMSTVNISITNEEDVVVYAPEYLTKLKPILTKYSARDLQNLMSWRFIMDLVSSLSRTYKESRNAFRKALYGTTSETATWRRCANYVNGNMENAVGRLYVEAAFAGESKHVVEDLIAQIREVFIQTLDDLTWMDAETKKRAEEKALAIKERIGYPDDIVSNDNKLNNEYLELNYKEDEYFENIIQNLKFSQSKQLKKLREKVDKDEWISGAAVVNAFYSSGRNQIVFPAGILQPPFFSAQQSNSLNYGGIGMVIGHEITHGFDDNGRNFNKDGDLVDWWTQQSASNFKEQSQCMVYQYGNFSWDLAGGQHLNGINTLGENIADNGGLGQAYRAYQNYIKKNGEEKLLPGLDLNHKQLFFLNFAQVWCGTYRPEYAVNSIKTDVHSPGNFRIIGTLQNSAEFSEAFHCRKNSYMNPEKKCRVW

T2 sequence (P15144 33-967 limits assumed): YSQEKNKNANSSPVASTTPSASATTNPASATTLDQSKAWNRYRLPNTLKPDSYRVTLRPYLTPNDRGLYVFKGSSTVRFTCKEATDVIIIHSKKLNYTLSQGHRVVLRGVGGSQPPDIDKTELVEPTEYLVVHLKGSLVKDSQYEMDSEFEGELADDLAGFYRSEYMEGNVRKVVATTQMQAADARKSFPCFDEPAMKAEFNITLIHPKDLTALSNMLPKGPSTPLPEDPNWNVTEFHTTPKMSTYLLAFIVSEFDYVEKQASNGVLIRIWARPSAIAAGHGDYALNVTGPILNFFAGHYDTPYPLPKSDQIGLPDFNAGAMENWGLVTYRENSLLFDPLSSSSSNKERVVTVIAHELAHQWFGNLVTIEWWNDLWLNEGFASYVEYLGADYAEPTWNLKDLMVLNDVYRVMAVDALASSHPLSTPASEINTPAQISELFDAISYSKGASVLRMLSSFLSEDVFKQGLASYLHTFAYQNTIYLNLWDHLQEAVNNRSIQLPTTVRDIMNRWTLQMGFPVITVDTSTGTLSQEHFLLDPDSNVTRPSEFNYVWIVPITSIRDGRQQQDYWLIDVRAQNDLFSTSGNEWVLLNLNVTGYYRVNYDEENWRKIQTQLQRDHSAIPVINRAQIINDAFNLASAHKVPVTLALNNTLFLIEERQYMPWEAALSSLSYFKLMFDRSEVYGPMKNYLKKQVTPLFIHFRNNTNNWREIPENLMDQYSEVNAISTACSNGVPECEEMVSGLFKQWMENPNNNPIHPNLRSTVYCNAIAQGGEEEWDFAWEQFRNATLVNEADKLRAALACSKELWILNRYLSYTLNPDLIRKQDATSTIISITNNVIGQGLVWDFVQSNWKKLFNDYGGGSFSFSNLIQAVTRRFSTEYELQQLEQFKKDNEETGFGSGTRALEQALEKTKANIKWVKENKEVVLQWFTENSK
T1 sequence (P08473 52-750 limits assumed): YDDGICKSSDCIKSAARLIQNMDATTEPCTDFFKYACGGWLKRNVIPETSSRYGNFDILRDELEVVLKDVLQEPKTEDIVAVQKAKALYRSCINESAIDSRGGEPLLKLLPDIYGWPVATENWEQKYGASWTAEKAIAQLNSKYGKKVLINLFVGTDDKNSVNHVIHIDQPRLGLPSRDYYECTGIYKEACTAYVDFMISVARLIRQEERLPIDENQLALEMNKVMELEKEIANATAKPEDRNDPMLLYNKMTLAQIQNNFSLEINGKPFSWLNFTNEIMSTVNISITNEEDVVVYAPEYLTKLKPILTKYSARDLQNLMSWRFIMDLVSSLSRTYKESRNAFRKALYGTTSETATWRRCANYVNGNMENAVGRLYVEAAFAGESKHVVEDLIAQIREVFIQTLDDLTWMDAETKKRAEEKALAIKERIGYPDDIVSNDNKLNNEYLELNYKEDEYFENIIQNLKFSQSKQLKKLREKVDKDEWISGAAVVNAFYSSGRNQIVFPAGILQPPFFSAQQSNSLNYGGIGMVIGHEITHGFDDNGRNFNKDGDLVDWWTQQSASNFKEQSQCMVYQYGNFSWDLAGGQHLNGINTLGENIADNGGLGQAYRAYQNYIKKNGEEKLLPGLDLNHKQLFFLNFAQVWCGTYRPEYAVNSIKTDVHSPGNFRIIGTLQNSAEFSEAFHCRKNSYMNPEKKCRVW
T3 sequence (P08473 52-750 limits assumed): as above

Row | inhibitory potency towards human NEP (in words) [1] | inhibitory potency towards hAP-N compared to Opiorphin-QRFSR native peptide (in words) [2] | inhibitory preference for human AP-N (in words) [2] | inhibitory potency towards hNEP compared to Opiorphin-QRFSR native peptide (in words) [1] | Compound | further results
1 | weak inhibitory potency | equivalent inhibitory potency | inhibitory preference for human AP-N | weak inhibitory potency | QRFPR | 
2 |  |  |  | equivalent inhibitory potency | QRFSK | 
3 | weak inhibitory potency | equivalent inhibitory potency | inhibitory preference for human AP-N | weak inhibitory potency | QRGPR [NH2-QRGPR-COOH] | 
4 | weak inhibitory potency | equivalent inhibitory potency | inhibitory preference for human AP-N | weak inhibitory potency | QHNPR [NH2-QHNPR-COOH] | 

The next lines start with the compound.

Row | Compound | inhibitory potency towards human NEP (in words) [1] | inhibitory potency towards hAP-N compared to Opiorphin-QRFSR native peptide (in words) [2] | inhibitory preference for human AP-N (in words) [2] | inhibitory potency towards hNEP compared to Opiorphin-QRFSR native peptide (in words) [1] | further results
5 | N=C(N)NCCC[C@H](NC(=O)[C@H](CO)NC(=O)[C@H](Cc1ccccc1)NC(=O)[C@H](CCCNC(=N)N)NC(=O)[C@H](CCC(N)=O)NC(=O)[C@@H](N)CS)C(=O)O [CQRFSR-COOH, CQRFSR] | potent dual inhibitors |  |  |  | reinforced inhibitory potency towards hNEP compared to QRFSR native peptide ([1]; increase vs QRFSR native peptide): 5 fold
6 | N=C(N)NCCC[C@H](NC(=O)[C@H](CO)NC(=O)[C@H](Cc1ccccc1)NC(=O)[C@H](CCCNC(=N)N)NC(=O)[C@H](CCC(N)=O)NC(=O)CCCCCCCCCCCCNC(=O)[C@@H](N)Cc1ccc(O)cc1)C(=O)O [Y(PE12)QRFSR-COOH, Y—(—HN—(CH2)12—CO-)-QRFSR] | potent dual inhibitors |  |  |  | inhibitory preference for human NEP endopeptidase activity (in words) [3]: inhibitory preference for human NEP endopeptidase activity; inhibitory potency towards human AP-N (in words) [2]: potent dual inhibitors
7 | N=C(N)NCCC[C@H](NC(=O)[C@H](CO)NC(=O)[C@H](Cc1ccccc1)NC(=O)[C@H](CCCNC(=N)N)NC(=O)[C@H](CCC(N)=O)NC(=O)[C@@H](N)CSSC[C@H](N)C(=O)N[C@@H](CCC(N)=O)C(=O)N[C@@H](CCCNC(=N)N)C(=O)N[C@@H](Cc1ccccc1)C(=O)N[C@@H](CO)C(=O)N[C@@H](CCCNC(=N)N)C(=O)O)C(=O)O [[CQRFSR]2] |  |  |  |  | increase inhibitory potency towards hNEP-Endo and CarboxyDi-peptidase activities compared to CQRFSR monomer peptide ([1]; increase vs CQRFSR monomer): at least 2 fold
8 | dR-dS-dF-dR-dQ ([dR][dS][dF][dR][dQ]) [NH2-dRdSdFdRdQ-COOH] | did not display significant inhibitory activity |  | preference for AP-N activity |  | inhibitory potency towards human AP-N (in words) [2]: did not display significant inhibitory activity
9 | CCCCCCCC(=O)OC[C@H](NC(=O)[C@H](Cc1ccccc1)NC(=O)[C@H](CCCNC(=N)N)NC(=O)[C@H](CCC(N)=O)NC(=O)CCCCCCNC(=O)[C@@H](N)CS)C(=O)N[C@@H](CCCNC(=N)N)C(=O)O [C[PE6]QRF[S—O-Octanoyl]R, C—(—HN—(CH2)6—CO-)-QRF—S(O-octanoyl)-R] |  |  |  |  | increase inhibitory potency compared to Opiorphin native peptide, Substance P test [4]: at least 5 fold
10 | QKFSR |  |  |  | light reduction in inhibitory potency | 
